The values that follow come from patent US20220204565A1 (DREXEL UNIVERSITY, published 2022).

The target of assay [1] is T1, wild type monomeric full-length HIV-1 YU-2 gp120 (HIV-1 YU-2, UniProt P35961 32-498).
T1 construct: domain: gp120; also called gp120YU-2; gp120 YU-2
Nature of the assay: ITC with monomeric gp120 YU-2.
Procedure: (§1) The resulting heat changes were integrated, and the values obtained were fitted to a quadratic binding equation (one site binding model).
(§2) cPT dissociation constants were determined at 25° C. on a VP-Isothermal Titration Calorimeter (VP-ITC) system (MicroCal™, GE Healthcare, Freiburg). […] The resulting heat change upon injection was integrated over a time range of 300 sec, and the obtained values were fitted to a standard single-site binding model using ORIGIN®.

In assay [2] the target is T1, wild type monomeric full-length HIV-1 …. Nature of the assay: ITC, peptide titrated into 30 µM full-length gp120 YU-2, 25 °C, PBS pH 7.3.
Procedure: as §1, §2
Assay [3] concerns the target HIV-1 BaL.01 Env gp160 on pseudovirus (HIV-1 BaL.01). Kind of assay: cell-based or functional assay.
Assay [4] concerns the target T1, wild type monomeric full-length HIV-1 …. Kind of assay: SPR competition: gp120 YU-2 with increasing peptide over immobilised 17b; competitor 17b.
Procedure: (§3) For kinetic analyses, typically 2000-3000 RUs of protein reagents are immobilized on SPR chips, and analytes are passed over the surface at 50-100 μL/min. Surface regeneration is achieved by a 5 μL injection of 10 mM HCl solution at 100 μL/min.
(§4) Data analysis of SPR competition data was performed using BIAevaluation v4.1.1 software (GE). To correct for nonspecific binding, response signals from buffer injection and from control flow cell were subtracted from all sensorgrams. […] The inhibition curve was plotted and then fitted using the four-parameter equation as shown below using OriginPro 8 graphing software.
Assay [5] addresses HIV-1 BaL.01 Env gp160 on pseudovirus (HIV-1 BaL.01). Nature of the assay: cell-based or functional assay. The source holds these as a separate data set.
Assay [6] deals with T1, wild type monomeric full-length HIV-1 …. Kind of assay: SPR competition: gp120 YU-2 with increasing peptide over immobilised soluble CD4; competitor CD4.
Procedure: as §3, §4
For assay [7] the target is unchanged. Kind of assay: SPR competition: gp120 YU-2 with increasing peptide over immobilised soluble CD4; competitor CD4; CD4 competition column, not 17b competition.
Procedure: as §3, §4
For assay [8] the target is unchanged. Nature of the assay: SPR competition: fixed HIV-1 YU-2 gp120 mixed with rising concentrations of 36 and passed over immobilized 17b; y axis % gp120 binding to 17b falls from about 100 to near 0 between about 2 and 2500 nM.
Procedure: as §3, §4
Assay [9] shares this target. Kind of assay: SPR competition: fixed HIV-1 YU-2 gp120 mixed with rising concentrations of 36 and passed over immobilized soluble CD4; y axis % gp120 binding to CD4 falls from about 97 to about 10 between about 5 and 2500 nM.
Procedure: as §3, §4
Assay [10] shares this target. Kind of assay: SPR competition: gp120 YU-2 with increasing peptide over immobilised 17b; competitor 17b. This is another data set of the same source.
Procedure: as §3, §4
Assay [11] has the same target. Kind of assay: SPR competition: gp120 YU-2 with increasing peptide over immobilised soluble CD4; competitor CD4. The source holds these as a separate data set.
Procedure: as §3, §4

For orientation: Kd means the concentration at which binding is half-saturated. Read a low Kd as tighter binding. One may read the IC50 as the concentration that gives 50% inhibition.

Read-outs that look alike come from different tables or passages of the source. Bridges are numbered along the chain shown (N, C = ends). Where no end group is shown, it is not given here. [ ]: non-standard residue; d: D form. triazolo‑Pro(2,4-diMe-benzyl) = triazolo-proline with ortho- and para-methyl phenyl methyl on the triazole; triazolo‑Pro(3,4-diMe-benzyl) = triazolo-proline with para- and meta-methyl phenyl methyl on the triazole; triazolo‑Pro(3,5-diMe-benzyl) = triazolo-proline with two meta-methyl phenyl methyl on the triazole; triazolo‑Pro(2-Me-benzyl) = triazolo-proline with ortho-methyl phenyl methyl on the triazole; triazolo‑Pro(3-Me-benzyl) = triazolo-proline with meta-methyl phenyl methyl on the triazole; triazolo‑Pro(4-Me-benzyl) = triazolo-proline with para-methyl phenyl methyl on the triazole; triazolo‑Pro(4-tBu-phenyl) = triazolo-proline with para-tert-butylphenyl on the triazole; triazolo‑Pro(ferrocenyl) = triazolo-proline carrying a ferrocene moiety on the triazole; triazolo‑Pro(benzyl) = triazolo-proline with phenyl methyl moiety on the triazole; triazolo‑Pro(biphenyl) = triazolo-proline with biphenyl group on the triazole

B1: cPT 3 (AAR029b) (peptide)
peptide: DNI[triazolo‑Pro(ferrocenyl)]WK-NH2
modifications: lactam 1-6
notes: Ferrocene-containing parent cyclic peptide triazole; also called lead cPT 3
Turning to B1, the “-TΔS” value in assay [1] was -2.75 kcal/mol. In [2], this molecule showed a Kd of 415 nM, a ΔH of -5.96 kcal/mol and a ΔS of 0.00922 kcal/mol. Also, the “HIV-1Bal.01 infection inhibition IC50” value in assay [3] was about 237 nM.

B2: cPT 28 (peptide)
peptide: DNI[triazolo‑Pro(3,5-diMe-benzyl)]WK-NH2
modifications: lactam 1-6
For B2, the IC50 is 918 nM in assay [4] and 926 nM in assay [6]. Further, in assay [5], the “HIV-1Bal.01 infection inhibition IC50” value turned out to be 2000 nM.

B3: cPT 29 (peptide)
peptide: DNI[triazolo‑Pro(3,4-diMe-benzyl)]WK-NH2
modifications: lactam 1-6
For the molecule B3, the IC50 in assay [4] came to 2600 nM; in assay [6], 2800 nM. For the same molecule, the “HIV-1Bal.01 infection inhibition IC50” value in assay [5] is 8000 nM.

B4: cPT 20 (peptide)
peptide: DNIPWK-NH2
modifications: lactam 1-6; not fully specified (residue 4); also: further groups not given here
Take B4: the values for the IC50 in [4] and in assay [6] were 820 nM and 956 nM, respectively. In addition, the “HIV-1Bal.01 infection inhibition IC50” value in [5] is 1200 nM.

B5: cPT 26 (peptide)
peptide: DNI[triazolo‑Pro(3-Me-benzyl)]WK-NH2
modifications: lactam 1-6
As for B5, the IC50 in assay [4] worked out at 228 nM; in assay [6] it was 234 nM. Also, in [5], the “HIV-1Bal.01 infection inhibition IC50” value was 220 nM.

B6: cPT 18 (peptide)
peptide: DNI[triazolo‑Pro]WK-NH2
modifications: lactam 1-6; not fully specified
Turning to B6, the IC50 in assay [7] was 614 nM; in [4], 647 nM. Moreover, in assay [5], the “HIV-1Bal.01 infection inhibition IC50” value turned out to be 1400 nM. For the same molecule, the “HIV-1 cell infection inhibition IC50” value in assay [3] is about 1300 nM.

B7: cPT 27 (peptide)
peptide: DNI[triazolo‑Pro(2,4-diMe-benzyl)]WK-NH2
modifications: lactam 1-6
Regarding B7, the IC50 in assay [4] amounted to 136 nM; in [6], 130 nM. Further, the “HIV-1Bal.01 infection inhibition IC50” value in assay [5] came out at 302 nM.

B8: cPT 23 (peptide)
peptide: DNI[triazolo‑Pro(biphenyl)]WK-NH2
modifications: lactam 1-6
Take B8: the IC50 in [4] stood at 720 nM; in assay [6], 680 nM. In addition, in assay [5], the “HIV-1Bal.01 infection inhibition IC50” value was determined as 269 nM.

B9: cPT 36 (29N-2) (peptide)
peptide: DNI[4‑(4-(4-(thiophen-2-yl)phenyl)-1H-1,2,3-triazol-1-yl)proline]WK-NH2
modifications: lactam 1-6
notes: also called Compound 29N-2
As for B9, the “-TΔS” value in [1] was -4.74 kcal/mol. The molecule also displayed a Kd in assay [2] of 350 nM. The molecule also came in with a ΔH in [2] of -4.07 kcal/mol. The molecule further had a ΔS in [2] of 0.0159 kcal/mol. In addition, the IC50 was 56 nM in assay [8], 66 nM in assay [9], about 56 nM in [10] and about 66 nM in assay [11]. Moreover, the “HIV-1 infection inhibition IC50” value in assay [3] is about 105 nM.

B10: cPT 19 (peptide)
peptide: DNI[triazolo‑Pro(benzyl)]WK-NH2
modifications: lactam 1-6
For the molecule B10, the IC50 is 269 nM in assay [4] and 257 nM in [6]. Further, the “HIV-1Bal.01 infection inhibition IC50” value in assay [5] worked out at 438 nM.

B11: cPT 25 (peptide)
peptide: DNI[triazolo‑Pro(2-Me-benzyl)]WK-NH2
modifications: lactam 1-6
For B11, the IC50 in assay [4] is 128 nM; in assay [6] it was 132 nM. Also, the “HIV-1Bal.01 infection inhibition IC50” value in [5] came to 5100 nM. The “HIV-1 cell infection inhibition, fold lower potency against cPT 24” value in assay [3] is about 28 fold.

B12: cPT 24 (peptide)
peptide: DNI[triazolo‑Pro(4-Me-benzyl)]WK-NH2
modifications: lactam 1-6
Take B12: the figures for the IC50 in assay [4] and in [6] were 74 nM and 80 nM, respectively. Further, the “HIV-1Bal.01 infection inhibition IC50” value in [5] was 180 nM.

B13: cPT 21 (peptide)
peptide: DNI[triazolo‑Pro(4-iPr-phenyl)]WK-NH2
modifications: lactam 1-6
As for B13, the IC50 in [4] was 1260 nM; in assay [6] it was 1200 nM. Further, in [5], the “HIV-1Bal.01 infection inhibition IC50” value is 900 nM.

B14: cPT 22 (peptide)
peptide: DNI[triazolo‑Pro(4-tBu-phenyl)]WK-NH2
modifications: lactam 1-6
Regarding B14, the IC50 in [4] turned out to be 120 nM; in [6] it was 150 nM. Moreover, in assay [5], the “HIV-1Bal.01 infection inhibition IC50” value was 350 nM.
